Test results taken from patent US6506732B1, “Enzymatic hydrolysate of milk proteins” (Universite Laval, priority 1999, dated 2003).

Assay: Hydrophobicity of peptides of subfraction SF4
Type: physicochemical
Conditions: single peptides of subfraction SF4
Procedure: Further separation of the third fraction (F3) on preparative High Pressure Liquid Chromatography (HPLC) using TSK G2000 SW column and a 5 mM ammonium acetate buffer mobile phase adjusted to pH 6.5 gives five subfractions (SF1 to SF5). Composition of subfraction four (SF4), obtained by RP-HPLC using C-18™ column, containing fifteen peptides having average molecular weight of 900 daltons (200 to 1400 daltons) and average hydrophobicity of 11.7 Kcal/mole (5 to 20 Kcal/mole) is presented in Table 2.

Row | Substance | Hydrophobicity [kcal/mol]
1 | ALPQYL (Peptide from enzymatic hydrolysate of milk proteins) [Casein α-s2 175-180, peptide of SF4] | 10.9
2 | INNQFLPYPY (Peptide from enzymatic hydrolysate of milk proteins) [Casein κ 51-60, peptide of SF4] | 19.9
3 | IPIQY (Peptide from enzymatic hydrolysate of milk proteins) [Casein κ 26-30, peptide of SF4] | 11.3
4 | LLY (UniProt P02666 206-208, looked up, fragment) [Casein β 191-193, peptide of SF4] | 7.7
5 | LQSW (Peptide from enzymatic hydrolysate of milk proteins) [Casein β 140-143, peptide of SF4] | 5.3
6 | LYQEPVL (Peptide from enzymatic hydrolysate of milk proteins) [Casein β 192-198, peptide of SF4] | 9.3
7 | LYQGPIVL (Peptide from enzymatic hydrolysate of milk proteins) [Casein α-s2 99-106, peptide of SF4] | 17.7
8 | QGPIVLNPW (Peptide from enzymatic hydrolysate of milk proteins) [Casein α-s2 101-109, peptide of SF4] | 15.1
9 | SPAQILQWQVL (Peptide from enzymatic hydrolysate of milk proteins) [Casein κ 69-79, peptide of SF4] | 15.5
10 | VLPVPQK (Peptide from enzymatic hydrolysate of milk proteins) [Casein β 170-176, peptide of SF4] | 12.3
11 | VLVL (Peptide from enzymatic hydrolysate of milk proteins) [β-Lactoglobulin 92-95, peptide of SF4] | 8.2
12 | VPLGTQY (Peptide from enzymatic hydrolysate of milk proteins) [Casein α-s1 167-173, peptide of SF4] | 9.9
13 | YGLNYYQQKPVA (Peptide from enzymatic hydrolysate of milk proteins) [Casein κ 38-49, peptide of SF4] | 14.4
14 | YL: Casein α-s1 91-92, peptide of SF4 (UniProt P02662 106-107, looked up, fragment) | 5.3
15 | YVPLGTQY (Peptide from enzymatic hydrolysate of milk proteins) [Casein α-s1 166-173, peptide of SF4] | 12.7
